Our source for the Kd values is PMC9940316 (2023).

This assay addresses human plasma IgG1 (human, UniProt P01857 = IgG part). In words: SPR; pH 7. Background: SPR reads the build-up and loss of mass on a sensor chip optically.

B1: FcγRIIa (receptor)
chain: QAAAPPKAVLKLEPPWINVLQEDSVTLTCQGARSPESDSIQWFHNGNLIPTHTQPSYRFKANNNDSGEYTCQTGQTSLSDPVHLTVLSEWLVLQTPHLEFQEGETIMLRCHSWKDKPLVKVTFFQNGKSQKFSHLDPTFSIPQANHSHSGDYHCTGNIGYTLFSSKPVTITVQVPSMGSSSPMGIIVAVVIATAVAAIVAAVVALIYCRKKRISANSTDPVKAAQFEPPGRQMIAIRKRQLEETNNDYETADGGYMTLNPRAPTDDDKNIYLTLPPNDHVNSNN
For the molecule B1, binding was characterised by a dissociation constant (Kd) of 1300 nM.
